Experimental data: US20220119534A1 (DRAGONFLY THERAPEUTICS, published 2022)

T1: human CLEC12A on cells (HL60, PL21, Ba/F3-hCLEC12A) (human, UniProt Q5QGZ9 1-265)
T1 construct: Endogenous on the AML lines HL60 and PL21; brought into mouse Ba/F3 cells by retroviral transduction; The cell line stands under assay; also called CLL-1
T1 sequence: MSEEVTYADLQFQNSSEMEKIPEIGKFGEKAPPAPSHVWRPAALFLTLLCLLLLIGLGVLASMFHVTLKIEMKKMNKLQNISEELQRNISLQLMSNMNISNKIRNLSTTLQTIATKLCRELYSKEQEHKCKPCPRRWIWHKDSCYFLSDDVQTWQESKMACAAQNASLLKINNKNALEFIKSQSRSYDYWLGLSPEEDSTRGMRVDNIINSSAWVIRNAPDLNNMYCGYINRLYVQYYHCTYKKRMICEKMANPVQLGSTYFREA

T2: recombinant human CLEC12A-His (human, UniProt Q5QGZ9 65-265)
T2 construct: also called hCLEC12A-His; hCLEC12A
T2 sequence: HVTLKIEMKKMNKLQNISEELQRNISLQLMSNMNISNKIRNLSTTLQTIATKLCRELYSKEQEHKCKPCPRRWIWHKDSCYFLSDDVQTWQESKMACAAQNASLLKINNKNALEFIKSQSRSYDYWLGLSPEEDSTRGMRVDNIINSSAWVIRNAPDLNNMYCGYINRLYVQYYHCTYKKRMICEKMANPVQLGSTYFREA

T3: recombinant cynomolgus CLEC12A-His (cynomolgus monkey, UniProt A0A2K5WXQ4 71-271)
T3 construct: also called cCLEC12A-His; cCLEC12A
T3 sequence: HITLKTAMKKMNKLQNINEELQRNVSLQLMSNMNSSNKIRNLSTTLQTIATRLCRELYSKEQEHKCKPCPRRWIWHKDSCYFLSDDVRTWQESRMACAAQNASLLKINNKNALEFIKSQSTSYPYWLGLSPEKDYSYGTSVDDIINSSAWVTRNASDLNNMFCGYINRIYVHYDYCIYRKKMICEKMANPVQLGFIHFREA

T4: human CLEC12A expressed on cells (human, UniProt Q5QGZ9 1-265)
T4 construct: Transduced isogenic cells or endogenous expression on AML cells; also called RMA-hCLEC12A; Ba/F3-hCLEC12A
T4 sequence: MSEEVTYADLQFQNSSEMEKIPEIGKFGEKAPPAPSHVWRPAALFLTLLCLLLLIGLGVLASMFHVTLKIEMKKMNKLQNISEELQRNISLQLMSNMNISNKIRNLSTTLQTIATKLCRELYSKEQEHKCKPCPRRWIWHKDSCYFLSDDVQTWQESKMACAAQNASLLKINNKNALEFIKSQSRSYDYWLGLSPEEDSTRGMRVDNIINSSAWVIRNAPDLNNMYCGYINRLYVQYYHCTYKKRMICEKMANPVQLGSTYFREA


Columns and labels:
[1] = biological target: T1, human CLEC12A on cells (HL60, PL21, …); assay: flow cytometry, 40 nM, MFI after 2 h 37 C relative to 2 h on ice, PL21 cells
Procedure: (§1) Test articles were used at saturation concentrations and detected using a human IgG Fc-specific secondary antibody. Staining intensity after two hours at 37° C. was normalized to staining intensity of the same test article on cells incubated for two hours on ice to derive the percentage of CLEC12A retained on cell surfaces. Data bars represent the average of duplicate wells and error bars represent standard deviation.
(§2) 100,000 cells were seeded per well into duplicate 96-well plates for FACS staining. Cells were washed with FACS buffer. Test articles were diluted to 40 nM and were added to each of the duplicate plates. The first plate was incubated on ice for 2 hours, while the second plate was moved to 37° C. for two hours. After the incubation, cells were washed with PBS and cells were incubated in a 1:2000 dilution of live/dead dye in PBS for 15 minutes, then washed with FACS buffer. Anti-human IgG-Fc secondary antibody was diluted into FACS buffer, and 50 μl was added per well for detection of the bound TriNKETs or mAbs. Cells were incubated for 20 minutes on ice, then washed with FACS buffer. 50 μl of fixation buffer was added to each well, and cells were incubated for 10 minutes at room temperature. Cells were washed with FACS buffer and resuspended in FACS buffer for analysis with BD FACS Celesta SN #H66034400085, or BD FACS Celesta SN #H66034400160. Cells of interest were identified using FSC vs. SSC plot, and an appropriately shaped gate was drawn around the cells. Within the gated cells, doublet cells were removed by viewing FSC-H vs FSC-A plot. Within the single cell population, live cells were gated. […] Surface retention was then calculated as follows:

[2] = biological target: T1, human CLEC12A on cells (HL60, PL21, …); assay: flow cytometry, PL21 cells
Procedure: (§3) 100,000 cells were seeded per well into a 96-well plate for FACS staining. Cells were washed with PBS. Cells were incubated in a 1:2000 dilution of live/dead dye in PBS for 15 minutes, then washed with FACS buffer. TriNKETs or mAbs were diluted into FACS buffer, and 50 μl containing diluted TriNKET or mAb was added to cells. Cells were incubated on ice for 20 minutes. After the incubation, cells were washed with FACS buffer. Anti-human IgG-Fc secondary antibody was diluted into FACS buffer, and 50 μl was added per well for detection of the bound TriNKETs or mAbs. Cells were incubated for 20 minutes on ice, then washed with FACS buffer. 50 μl of fixation buffer was added to each well, and cells were incubated for 10 minutes at room temperature. Cells were washed with FACS buffer and resuspended in FACS buffer for analysis with BD FACS Celesta SN #H66034400085, or BD FACS Celesta SN #H66034400160. Cells of interest were identified using FSC vs. SSC plot, and an appropriately shaped gate was drawn around the cells. Within the gated cells, doublet cells were removed by viewing FSC-H vs FSC-A plot. Within the single cell population, live cells were gated. Within the live gate, the mean fluorescence intensity (MFI) of each sample and the secondary-only control was calculated. Fold-over-background (FOB) was calculated as the ratio of test article MFI over secondary-only background MFI. Data were fit to a four-parameter non-linear regression curve using GraphPad Prism 7.0.

[3] = biological target: T1, human CLEC12A on cells (HL60, PL21, …); assay: flow cytometry, Ba/F3-hCLEC12A cells
[4] = biological target: T1, human CLEC12A on cells (HL60, PL21, …); assay: flow cytometry, 40 nM, MFI after 2 h 37 C relative to 2 h on ice, HL60 cells
Procedure: as §1, §2

[5] = biological target: T1, human CLEC12A on cells (HL60, PL21, …); assay: flow cytometry, HL60 cells
Procedure: as §3

[6] = biological target: T2, recombinant human CLEC12A-His; assay: SPR, purified murine mAb
[7] = biological target: T3, recombinant cynomolgus CLEC12A-His; assay: SPR, purified murine mAb
[8] = biological target: T4, human CLEC12A expressed on cells; assay: flow cytometry on RMA-hCLEC12A cells
[9] = biological target: T2, recombinant human CLEC12A-His; assay: SPR screening, semi-purified
Procedure: Binding affinities of the 18 semi-purified TriNKETs for hCLEC12A were assessed by SPR in screening.

Binder	percent surface retention [1] [%]	EC50 [2] [nM]	FOB (fold over background) [2] [fold]	EC50 [3] [nM]	FOB (fold over background) [3] [fold]	percent surface retention [4] [%]	EC50 [5] [nM]	FOB (fold over background) [5] [fold]	Kd [6] [nM]	koff [6] [s⁻¹]	kon [6] [M⁻¹ s⁻¹]	Kd [7] [nM]	koff [7] [s⁻¹]	kon [7] [M⁻¹ s⁻¹]	EC50 (read off the curve) [8] [nM]	Kd [9] [nM]	koff [9] [s⁻¹]	kon [9] [M⁻¹ s⁻¹]
AB0305 mAb (Humanized 1739 anti-CLEC12A mAb) (antibody, IgG1, V domains shown, Parental hIgG1 mAb; also called parental mAb of AB0089) VH: QLQLQESGPGLVKPSETLSLTCTVSGFSLTNYGLHWIRQPPGKGLEWIGVIWVGGATDYNPSLKSRVTISVDTSKNQFSLKLSSVQAADTAVYYCAKGDYGDTLDYWGQGTLVTVSS VL: DIQMTQSPSSLSASVGDRVTITCHASQNINFWLSWYQQKPGKAPKLLIYEASNLHTGVPSRFSGSGSGTDFTLTISSLQPEDFATYYCQQSHSYPLTFGSGTKLEIK	92	0.12	15	0.67	279	90	0.12	53	–	–	–	–	–	–	–	–	–	–
AB0037 mAb (Humanized 1602 anti-CLEC12A mAb) (antibody, V domains shown, Parental mAb of AB0237; also called humanized mAb 16B8.C8; parental mAb of AB0237) VH: QLQLQESGPGLVKPSETLSLTCTVSGFSLTNYGLHWIRQPPGKGLEWIGVIWSGGKTDYNPSLKSRVTISKDTSKNQFSLKLSSVQAADTAVYYCAKYDYDDSLDYWGQGTLVTVSS VL: DIQMTQSPSSLSASVGDRVTITCHASQNINFWLSWYQQKPGKAPKLLIYEASNLHTGVPSRFSGSGSGTRFTLTISSLQPEDIATYYCQQSHSYPLTFGGGTKLEIK	79	0.52	13	1.4	301	74	0.52	51	–	–	–	–	–	–	–	–	–	–
15A10.G8 (antibody, V domains shown, Murine mAb) VH: EVQLQESGAELVRSGASIKLSCAASAFNIKDYFIHWVRQRPDQGLEWIGWIDPENDDTEYAPKFQDKATMTADTSSNTAYLQLSSLTSADTAVYYCNALWSRGGYFDYWGQGTTLTVSS VL: EVLLTQSPAIIAASPGEKVTITCSARSSVSYMSWYQQKPGSSPKIWIYGISKLASGVPARFSGSGSGTYFSFTINNLEAEDVATYYCQQRSYYPFTFGSGTKLEIK	–	–	–	–	–	–	–	–	1.6	0.000494	301000	3.3	0.000659	196000	–	–	–	–

The remaining lines, values ahead:

percent surface retention [1] [%]	EC50 [2] [nM]	FOB (fold over background) [2] [fold]	EC50 [3] [nM]	FOB (fold over background) [3] [fold]	percent surface retention [4] [%]	EC50 [5] [nM]	FOB (fold over background) [5] [fold]	Kd [6] [nM]	koff [6] [s⁻¹]	kon [6] [M⁻¹ s⁻¹]	Kd [7] [nM]	koff [7] [s⁻¹]	kon [7] [M⁻¹ s⁻¹]	EC50 (read off the curve) [8] [nM]	Kd [9] [nM]	koff [9] [s⁻¹]	kon [9] [M⁻¹ s⁻¹]	Binder
–	–	–	–	–	–	–	–	–	–	–	–	–	–	~10	2.7	0.0013	480000	F3'-1304 (other, As F3'-1292) DIQMTQSPSSLSASVGDRVTITCHASQNINFWLSWYQQKPGKIPKLLIYEASNLHTGVPSRFSGSGSGTRFTLTISSLQPEDIATYYCQQSHSYPLTFGCGTKLEIKGGGGSGGGGSGGGGSGGGGSQLQLQESGPGLVKPSETLSLTCTVSGFSLTNYGLHWIRQPPGKCLEWIGVIWSGGKTDYNPSLKSRVTISKDTSKNQFSLKLSSVQAADTAVYYCAKYDYDDSLDYWGQGTLVTVSSGSDKTHTCPPCPAPELLGGPSVFLFPPKPKDTLMISRTPEVTCVVVDVSHEDPEVKFNWYVDGVEVHNAKTKPREEQYNSTYRVVSVLTVLHQDWLNGKEYKCKVSNKALPAPIEKTISKAKGQPREPRVYTLPPCRDELTKNQVSLTCLVKGFYPSDIAVEWESNGQPENNYKTTPPVLVSDGSFTLYSKLTVDKSRWQQGNVFSCSVMHEALHNHYTQKSLSLSPG heavy: EVQLVESGGGLVKPGGSLRLSCAASGFTFSSYSMNWVRQAPGKGLEWVSSISSSSSYIYYADSVKGRFTISRDNAKNSLYLQMNSLRAEDTAVYYCARGAPIGAAAGWFDPWGQGTLVTVSSASTKGPSVFPLAPSSKSTSGGTAALGCLVKDYFPEPVTVSWNSGALTSGVHTFPAVLQSSGLYSLSSVVTVPSSSLGTQTYICNVNHKPSNTKVDKKVEPKSCDKTHTCPPCPAPELLGGPSVFLFPPKPKDTLMISRTPEVTCVVVDVSHEDPEVKFNWYVDGVEVHNAKTKPREEQYNSTYRVVSVLTVLHQDWLNGKEYKCKVSNKALPAPIEKTISKAKGQPREPQVCTLPPSRDELTENQVSLTCLVKGFYPSDIAVEWESNGQPENNYKTTPPVLDSDGSFFLYSWLTVDKSRWQQGNVFSCSVMHEALHNHYTQKSLSLSPG light: DIQMTQSPSSVSASVGDRVTITCRASQGISSWLAWYQQKPGKAPKLLIYAASSLQSGVPSRFSGSGSGTDFTLTISSLQPEDFATYYCQQGVSFPRTFGGGTKVEIKRTVAAPSVFIFPPSDEQLKSGTASVVCLLNNFYPREAKVQWKVDNALQSGNSQESVTEQDSKDSTYSLSSTLTLSKADYEKHKVYACEVTHQGLSSPVTKSFNRGEC
106	0.18	12	0.68	303	114	0.26	47	–	–	–	–	–	–	–	–	–	–	AB0306 mAb (Humanized 1797 anti-CLEC12A mAb) (antibody, IgG1, V domains shown, Parental hIgG1 mAb of AB0192; also called parental mAb of AB0192) VH: EVQLVESGGGVVQPGGSLRLSCAASGFTFNAFGMHWVRQAPGKGLEWVAFISSGSTSIYYANTVKGRFTISRDNSKNTLYLQMNSLRAEDTAVYYCARDGYPTGGAMDYWGQGTSVTVSS VL: DIQMTQSPSSLSASVGDRVTITCKASQDIYNYLSWFQQKPGKAPKPLIYRANILVSGVPSRFSGSGSGQDYTFTISSLQPEDIATYYCLQFDAFPFTFGSGTKLEIK
